These results are taken from PMC8867573.

Common to all, as to test: purified protein
Substrate in data set [1]: COc1cccc(OC)c1O
The format is biochemical, Streptomyces coelicolor. The settings on record: pH 8.0, 42 °C, 0.25-15 mM substrate.

Substrate in data set [2]: CCn1c(=NN=c2sc3cc(S(=O)(=O)O)ccc3n2CC)sc2cc(S(=O)(=O)O)ccc21
The settings on record: pH 5.0, 42 °C, 0.1-25 mM substrate.

Substrate in data set [3]: COc1cc(-c2cc(OC)c(O)c(OC)c2)cc(OC)c1O
Type of data set: biochemical, Streptomyces coelicolor. Conditions: pH 8.5, 42 °C, 0.025-2 mM substrate.

As a reminder, the Km is the substrate concentration at which the rate is half of its maximum. A word on the kcat: it is the number of substrate molecules converted per active site and unit of time at saturation.

B1: ScSLAC (small laccase, SLAC) (Streptomyces coelicolor A3(2); M298L) (protein)
chain: AKGITARTAPAGGEVRHLKMYAEKLADGQMGYGFEKGKASVPGPLIEVNEGDTLHIEFTNTMDVRASLHVHGLDYEISSDGTAMNKSDVEPGGTRTYTWRTHKPGRRDDGTWRPGSAGYWHYHDHVVGTEHGTGGIRNGLYGPVIVRRKGDVLPDATHTIVFNDMTINNRKPHTGPDFEATVGDRVEIVMITHGEYYHTFHMHGHRWADNRTGILTGPDDPSRVIDNKITGPADSFGFQIIAGEGVGAGAWMYHCHVQSHSDMGLVGLFLVKKPDGTIPGYEPHEHGGATAKSGESGEPTGGAAAHEHEH
Regarding B1, in “purified protein [1]”, the Km was determined as 1300 ± 90 µM, the kcat worked out at 1.5 s⁻¹ and the kcat/Km result is on record as “kcat/Km = 1.2 × 10^3 s^–1 M^–1”. In “purified protein [2]”, the Km stood at 5000 ± 220 µM and the kcat was found to be 9.3 s⁻¹.

B2: ScSLAC (small laccase, SLAC) (Streptomyces coelicolor A3(2); M298F) (protein)
chain: AKGITARTAPAGGEVRHLKMYAEKLADGQMGYGFEKGKASVPGPLIEVNEGDTLHIEFTNTMDVRASLHVHGLDYEISSDGTAMNKSDVEPGGTRTYTWRTHKPGRRDDGTWRPGSAGYWHYHDHVVGTEHGTGGIRNGLYGPVIVRRKGDVLPDATHTIVFNDMTINNRKPHTGPDFEATVGDRVEIVMITHGEYYHTFHMHGHRWADNRTGILTGPDDPSRVIDNKITGPADSFGFQIIAGEGVGAGAWMYHCHVQSHSDMGFVGLFLVKKPDGTIPGYEPHEHGGATAKSGESGEPTGGAAAHEHEH
B2: in the data set “purified protein [3]”, the Km was found to be 300 ± 50 µM, the kcat was found to be 5.4 s⁻¹ and the kcat/Km entry is “kcat/Km = 1.8 × 10^4 s^–1 M^–1”. In “purified protein [1]”, the Km came out at 1200 ± 190 µM, the kcat is 0.7 s⁻¹ and the kcat/Km entry is listed as “kcat/Km = 0.6 × 10^3 s^–1 M^–1”. For the same protein, in the data set “purified protein [2]”, the Km turned out to be 4100 ± 240 µM and the turnover number (kcat) was 3.7 s⁻¹.

B3: ScSLAC (small laccase, SLAC) (Streptomyces coelicolor A3(2)) (protein)
chain: AKGITARTAPAGGEVRHLKMYAEKLADGQMGYGFEKGKASVPGPLIEVNEGDTLHIEFTNTMDVRASLHVHGLDYEISSDGTAMNKSDVEPGGTRTYTWRTHKPGRRDDGTWRPGSAGYWHYHDHVVGTEHGTGGIRNGLYGPVIVRRKGDVLPDATHTIVFNDMTINNRKPHTGPDFEATVGDRVEIVMITHGEYYHTFHMHGHRWADNRTGILTGPDDPSRVIDNKITGPADSFGFQIIAGEGVGAGAWMYHCHVQSHSDMGMVGLFLVKKPDGTIPGYEPHEHGGATAKSGESGEPTGGAAAHEHEH
Take B3: in the data set “purified protein [3]”, the Km amounted to 300 ± 50 µM, the kcat result is “kcat = 11.3 s^–1” and the kcat/Km entry is reported as “kcat/Km = 3.8 × 10^4 s^–1 M^–1”. In “purified protein [2]”, the Km was determined as 7300 ± 260 µM and the kcat was 38.6 s⁻¹.

B4: ScSLAC (small laccase, SLAC) (Streptomyces coelicolor A3(2); M198F/M298F) (protein)
chain: AKGITARTAPAGGEVRHLKMYAEKLADGQMGYGFEKGKASVPGPLIEVNEGDTLHIEFTNTMDVRASLHVHGLDYEISSDGTAMNKSDVEPGGTRTYTWRTHKPGRRDDGTWRPGSAGYWHYHDHVVGTEHGTGGIRNGLYGPVIVRRKGDVLPDATHTIVFNDFTINNRKPHTGPDFEATVGDRVEIVMITHGEYYHTFHMHGHRWADNRTGILTGPDDPSRVIDNKITGPADSFGFQIIAGEGVGAGAWMYHCHVQSHSDMGFVGLFLVKKPDGTIPGYEPHEHGGATAKSGESGEPTGGAAAHEHEH
B4: the Km in the data set “purified protein [3]” stood at 100 ± 20 µM; in “purified protein [1]” it was 1100 ± 80 µM; in the data set “purified protein [2]” it was 1100 ± 40 µM. The kcat in “purified protein [3]” is 5.6 s⁻¹; in the data set “purified protein [1]” it was 0.8 s⁻¹; in the data set “purified protein [2]”, 3.9 s⁻¹. Also, the results for the kcat/Km entry in “purified protein [3]” and in the data set “purified protein [1]” were “kcat/Km = 5.6 × 10^4 s^–1 M^–1” and “kcat/Km = 0.7 × 10^3 s^–1 M^–1”, respectively.
